Source: patent US7309578B2, “Therapeutic treatment of chronic obstructive pulmonary disease” (The Trustees of Columbia University in the City of New York, priority 2000, dated 2007)

How the values were obtained:
[1] = tested on: small airway epithelial cells, lung microvascular endothelial cells, lung fibroblasts; assay: Transfection of lung cells with a sFrp1 expression vector, caspase 3 activation assay (immunostaining); assay type: cell-based, human; settings: 24 or 48 h after transfection
Text: Transfection of Lung Cells with a sFrp1 Expression Vector: The mouse sFrp1 full length cDNA was generously provided by Drs. Jeremy Nathans and Amir Rattner, John Hopkins University, Baltimore, and subcloned into a pCMS-EGFP vector (Clontech, Palo Alto, Calif.). A gene of sFrp1w&s inserted into the multiple cloning site at EcoRI and Sail sites between the cytomegalovirus early promoter and SV40 polyadenilation signals, which direct proper processing of the 3′ end of sFrp1 mRNA. The vector also has a Gfp (green fluorescent protein) gene located in downstream of the sFrp1-SV40 polyadenilation signals and ligated between the SV40 enhancer/promoter sequence and a polyadenylation signal from the bovine growth hormone gene. This vector construct allows transcriptions of sFrp1 and Gfp as separate proteins in transfected cells. Normal human primary cultured cells of small airway epithelial cells (SAEC 6043), lung microvascular endothelial cells (HMVEC L 6521-3), and lung fibroblasts (NHLF 5975) were obtained from BioWhittaker (Walkersville, Md.) and cultured in proper media containing 10% fetal bovine serum. […] For Annexin-V-Biotin assay (Roche Diagnostics GmbH, Manheim, Germany), ceils were harvested at 72, 48, 24, 12 or 6 h after transfection and the reaction was detected by ExtraAvidin-Cy3 (Sigma). […]

[2] = tested on: small airway epithelial cells, lung microvascular endothelial cells, lung fibroblasts; assay: Transfection of lung cells with a sFrp1 expression vector, Annexin-V-Biotin assay; assay type: cell-based, human; settings: for apoptosis-inducing activity on transfection: normal human primary lung epithelial, endothelial and fibroblast cells transfected with sFrp1-Gfp expression vector
Text: Transfection of Lung Cells with a sFrp1 Expression Vector: The mouse sFrp1 full length cDNA was generously provided by Drs. Jeremy Nathans and Amir Rattner, John Hopkins University, Baltimore, and subcloned into a pCMS-EGFP vector (Clontech, Palo Alto, Calif.). A gene of sFrp1w&s inserted into the multiple cloning site at EcoRI and Sail sites between the cytomegalovirus early promoter and SV40 polyadenilation signals, which direct proper processing of the 3′ end of sFrp1 mRNA. The vector also has a Gfp (green fluorescent protein) gene located in downstream of the sFrp1-SV40 polyadenilation signals and ligated between the SV40 enhancer/promoter sequence and a polyadenylation signal from the bovine growth hormone gene. This vector construct allows transcriptions of sFrp1 and Gfp as separate proteins in transfected cells. Normal human primary cultured cells of small airway epithelial cells (SAEC 6043), lung microvascular endothelial cells (HMVEC L 6521-3), and lung fibroblasts (NHLF 5975) were obtained from BioWhittaker (Walkersville, Md.) and cultured in proper media containing 10% fetal bovine serum. Cells were plated 2 days before transfection in 4-well LabTek II chamber (Nalge Nunc International, Naperville, Ill.) at 2×10^4 cells/chamber and incubated at 37*C in 5% COj incubator. The sFrp1-Gjp expression vector or Gfp vector without sFrp gene (0.8 ujj) were transfected into cells using Lipofectaniine PLUS according to the manufacture's instruction (Gibco BRL). For Annexin-V-Biotin assay (Roche Diagnostics GmbH, Manheim, Germany), ceils were harvested at 72, 48, 24, 12 or 6 h after transfection and the reaction was detected by ExtraAvidin-Cy3 (Sigma). For caspase 3 activation assay, cells were fixed in 3% paraformaldehyde in PBS after 24 or 48 h of transfection and incubated with anti-human active caspase 3 antibody made by rabbit (x100, clone 9661. Cell Signaling Technology, Beverly, Mass.). Biotinylated goat IgG to rabbit IgG (Vector) and ExtraAvidin-Cy3 (Sigma) were used for detection of binding of a primary antibody.

B1: sFrp1: mouse secreted frizzled-related protein 1, expressed from full length cDNA in a pCMS-EGFP vector transfected into cells (protein, UniProt Q8C4U3 1-314, looked up)
chain: MGVGRSARGRGGAASGVLLALAAALLAAGSASEYDYVSFQSDIGSYQSGRFYTKPPQCVDIPVDLRLCHNVGYKKMVLPNLLEHETMAEVKQQASSWVPLLNKNCHMGTQVFLCSLFAPVCLDRPIYPCRWLCEAVRDSCEPVMQFFGFYWPEMLKCDKFPEGDVCIAMTPPNTTEASKPQGTTVCPPCDNELKSEAIIEHLCASEFALRMKIKEVKKENGDKKIVPKKKKPLKLGPIKKKELKRLVLFLKNGADCPCHQLDNLSHNFLIMGRKVKSQYLLTAIHKWDKKNKEFKNFMKRMKNHECPTFQSVFK
modifications: full-length
notes: mouse secreted frizzled-related protein 1, expressed from full length cDNA in a pCMS-EGFP vector transfected into cells
- active caspase 3 immunostaining [1]: presence of acive caspase 3 in and surrounding cells transfected sFrp1
- phosphatidylserine exposure to the outer cell membrane (annexin V assay) ([2]; 6-72 h after transfection, data not shown): time- and dose-dependency of cell death to sFrp1 expression
- apoptosis-inducing activity on transfection [2]: apoptosis-inducing activity of sFrp1 without preference of cell-type examined
- apoptosis-inducing activity on transfection ([2]; listed as sFRP-1): leads to apoptosis in lung epithelial cells, endothelial cells and fibroblasts
